Assay [1] deals with T1, human PD-L1 (cell surface) (human, UniProt Q9NZQ7). Nature of the assay: FACS, T24 cells. (In flow cytometry, cells or beads pass a laser one at a time.)
Assay [2] deals with T1, human PD-L1 (cell surface). Nature of the assay: FACS.
Assay [3] concerns the target T2, human PD-L1 ECD (human, UniProt Q9NZQ7). Put plainly: BLI.
In assay [4] the target is T1, human PD-L1 (cell surface). Nature of the assay: FACS, T24 cells. This is another data set of the same source.
In assay [5] the target is T1, human PD-L1 (cell surface). Nature of the assay: FACS. The source holds these as a separate data set.
The target of assay [6] is T1, human PD-L1 (cell surface). Put plainly: FACS. This is another data set of the same source.
In assay [7] the target is mouse PD-L1 (cell surface) (mouse, UniProt Q9EP73). Put plainly: FACS, Hepa1-6 cells.
For a further assay, the target named is T3, human VEGFA (human, UniProt P15692).
T3 chain: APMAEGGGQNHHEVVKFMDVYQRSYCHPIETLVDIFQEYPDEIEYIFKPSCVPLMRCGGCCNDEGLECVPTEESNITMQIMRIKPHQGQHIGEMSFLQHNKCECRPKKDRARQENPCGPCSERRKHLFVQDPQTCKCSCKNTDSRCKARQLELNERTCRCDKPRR
Nature of the assay: BLI. (BLI is a label-free optical method that tracks binding on a fibre tip over time.)

Assay [8] has as its target T2, human PD-L1 ECD. Put plainly: BLI. The source holds these as a separate data set.
In assay [9] the target is T1, human PD-L1 (cell surface). Put plainly: FACS, CHO-h-PD-L1 cells.
Assay [10] has as its target T1, human PD-L1 (cell surface). Nature of the assay: FACS, NCI-H441 cells.
In assay [11] the target is T1, human PD-L1 (cell surface). Put plainly: FACS, T24 cells. The source holds these as a separate data set.
A further assay addresses cynomolgus PD-L1 (cynomolgus). Nature of the assay: BLI.

Where two headings read alike, the source gives them in different places.

In patent publication US20260365734 (published 2026) one finds binding result, EC50 and Kd data, which are given here for 17 molecules.

As a reminder, the EC50 is the concentration needed to bring the measured effect to its halfway point. The low end stands for a more potent agent, the high end for a less potent agent. Usually Kd stands for the equilibrium constant for the complex coming apart.

T1 sequence (Q9NZQ7 19-238): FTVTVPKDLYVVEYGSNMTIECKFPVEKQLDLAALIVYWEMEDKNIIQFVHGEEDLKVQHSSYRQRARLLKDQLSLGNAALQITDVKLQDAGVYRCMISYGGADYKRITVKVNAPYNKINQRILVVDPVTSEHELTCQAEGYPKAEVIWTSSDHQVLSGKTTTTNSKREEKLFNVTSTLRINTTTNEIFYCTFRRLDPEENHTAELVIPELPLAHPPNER
T2 sequence (Q9NZQ7 19-238): as above
Sequence of cynomolgus PD-L1 (cynomolgus) (chain, as listed by the source): as the sequence (Q9NZQ7 19-238) above, with A33T, A34S, S62N, R68Q, Q82R, F173L, T185A, T192I, H215L counted along it
Sequence of mouse PD-L1 (cell surface) (Q9EP73 19-238): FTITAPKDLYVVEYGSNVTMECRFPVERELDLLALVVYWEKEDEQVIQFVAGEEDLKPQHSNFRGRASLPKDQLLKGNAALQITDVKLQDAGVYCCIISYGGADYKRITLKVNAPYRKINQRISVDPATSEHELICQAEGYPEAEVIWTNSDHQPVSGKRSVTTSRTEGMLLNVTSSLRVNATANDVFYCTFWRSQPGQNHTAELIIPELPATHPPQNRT

B1: Avastin (antibody, V domains shown)
VH: EVQLVESGGGLVQPGGSLRLSCAASGYTFTNYGMNWVRQAPGKGLEWVGWINTYTGEPTYAADFKRRFTFSLDTSKSTAYLQMNSLRAEDTAVYYCAKYPHYYGSSHWYFDVWGQGTLVTVSS
VL: DIQMTQSPSSLSASVGDRVTITCSASQDISNYLNWYQQKPGKAPKVLIYFTSSLHSGVPSRFSGSGSGTDFTLTISSLQPEDFATYYCQQYSTVPWTFGQGTKVEIK
As for B1, the binding result in assay [1] is on record as “no binding”.

B2: R2-5C12 (antibody, V domains shown)
VH: QVQLVESGGGLVQAGGSLRLSCAASGFSASDVVMAWYRQAPGKQREFVANIAARGSTDYANSVKGRFTISRDNAKNTVYLQMNSLKSDDTAVYYCNALVWNGSSYNNWGQGTQVTVSS
Take B2: the concentration giving a half-maximal response (EC50) in [2] was 0.22 nM; in assay [4] it was 0.078 nM; in assay [5] it was 0.24 nM. The molecule further had a Kd in the assay with human PD-L1 ECD [3] of 5.01 nM.

B3: R2-1F4 (antibody, V domains shown)
VH: QVQLVESGGGLVQAGGSLRLSCAASGFSASDVVMAWYRQAPGKQREFVANIAASSTTRYADSVKGRFTISRDDAKNTVSLQMNSLKSEDTAVYYCNALVWNGSSYNNWGQGTQVTVSS
As for B3, binding in the assay with human PD-L1 ECD [3] was put at a Kd of 2.04 nM. In addition, the EC50 in assay [4] is 0.059 nM; in assay [5], 0.22 nM.

B4: 5F8-hv8 (antibody, V domains shown)
VH: EVQLVESGGGLVQPGGSLRLSCAASGFDFSDTHMSWVRQAPGKERELVAIITSGGSTDYVDSVKGRFTISRDNSKNTLYLQMNSLRAEDTAVYYCNARRTTIYWGQGTQVTVSS
In turn, B4 gave a half-maximal effective concentration (EC50) in assay [6] of 0.69 nM. Moreover, in assay [7], the binding result is “no binding”.

B5: R3-5F8 (antibody, V domains shown)
VH: EVQLVESGGGLVQPGGSLRLSCVASGFDFSDTHMGWYRQAPGKERELVAIITSGGSTDYVDSVKGRFTISRDNAKNTVYLQMNSLKFEDTAVYYCNARRTTIYWGQGTQVTVSS
As for B5, in the assay with human PD-L1 ECD [3], binding was characterised by a dissociation constant (Kd) of 0.054 nM. Also, the EC50 in [4] turned out to be 0.503 nM; in [5], 0.53 nM.

B6: 1G1 (antibody, V domains shown)
VH: QVQLVESGGGVVQPGRSLRLSCAASGLSFSYGTMAWVRQAPGKELELVAALSAGGTITYYADSVKGRFTISRDNSKNTLYLQMNSLRAEDTAVYYCAALGGYSGGSKYPYYDYWGQGTLVTVSS
Regarding B6, the affinity with human VEGFA, expressed as Kd, was 14.4 nM.

B7: 4B11 (antibody, V domains shown)
VH: QVQLVESGGGVVQPGRSLRLSCAASGLSFSQYEMHWVRQAPGKEREFVAAISSSGISTYYADSVKGRFTISRDNSKNTLYLQMNSLRAEDTAVYYCAAELVDYHRWGYDYWGQGTLVTVSS
For B7, the Kd with human VEGFA came out at 2.82 nM.

B8: R3-3H1 (antibody, V domains shown)
VH: QLQLVESGGGVVQPGGSLRLSCAASGIDFSDTHMGWYRQAPGKQRELVAIITSGGSTDYVDSVKGRFTISRDNAKNTVYLQMNSLKFEDTAVYYCNARRSTIYWGQGTQVTVSS
In the assay with human PD-L1 ECD [3], B8 gave an equilibrium dissociation constant (Kd) of 1.2 nM. Further, in [5], a half-maximal effect (EC50) was put at 0.815 nM.

B9: R2-4E2 (antibody, V domains shown)
VH: EVQLVESGGGSVQDGGSLTLSCAASGFSAGDVVMAWYRQAPGKQREFVANIAASSTTRYTDSVKGRFTISRDNAKNTVYLQMNSLKSEDTAVYYCNALVWNGSSYNNWGQGTQVTVSS
Consider B9, for which the EC50 in assay [4] was found to be 0.05 nM; in [5], 0.148 nM.

B10: 1C8 (antibody, V domains shown)
VH: QVQLVESGGGVVQPGRSLRLSCAASGRSFSRYAMAWVRQAPGKERESVAVIGSGGGRTYYADSVKGRFTISRDNSKNTLYLQMNSLRAEDTAVYYCAARIYRVVGSGTYPAGYDYWGQGTLVTVSS
Take B10: the dissociation constant (Kd) in the assay with human VEGFA came to 2.61 nM.

B11: 7H3 (antibody, V domains shown)
VH: QVQLVESGGGVVQPGRSLRLSCAASGFTFGPYAMHWVRQAPGKERELVAAIWPSGSITYYADSVKGRFTISRDNSKNTLYLQMNSLRAEDTAVYYCAFGSPTGSITYWGQGTLVTVSS
Molecule B11 registered a Kd with human VEGFA of 2.08 nM.

B12: 4D2-hv1-NT (antibody, V domains shown)
VH: QVQLVESGGGLVKPGGSLRLSCAASGFSASDVVMAWYRQAPGKQREFVANLGASSTTRYADSVKGRFTISRDNAKNSLYLQMNSLRAEDTAVYYCNALVWTGSSYNNWGQGTQVTVSS
As for B12, the values for the equilibrium dissociation constant (Kd) with human PD-L1 ECD [8] and with cynomolgus PD-L1 were 4.54 nM and 3.76 nM, respectively. For the same molecule, the results for the EC50 in assay [9], in [10] and in [11] were 0.143 nM, 0.065 nM and 0.043 nM, respectively.

B13: 5C12-hv7-NT (antibody, V domains shown)
VH: QVQLVESGGGLVKPGGSLRLSCAASGFSASDVVMAWYRQAPGKQREFVSNIAARGSTDYADSVKGRFTISRDNAKNSLYLQMNSLRAEDTAVYYCNALVWTGSSYNNWGQGTQVTVSS
B13: the dissociation constant Kd with human PD-L1 ECD [8] came to 8.12 nM; with cynomolgus PD-L1, 4.34 nM. In assay [11], this molecule gave a half-maximal effective concentration (EC50) of 0.083 nM.

B14: 4E2-hv1-NT (antibody, V domains shown)
VH: EVQLVESGGGLVKPGGSLRLSCAASGFSAGDVVMAWYRQAPGKQREFVANIAASSTTRYADSVKGRFTISRDNAKNSLYLQMNSLRAEDTAVYYCNALVWTGSSYNNWGQGTQVTVSS
In the case of B14, the figures for the Kd with human PD-L1 ECD [8] and with cynomolgus PD-L1 were 4.64 nM and 3.4 nM, respectively. Further, the EC50 in assay [9] came out at 0.11 nM; in assay [10] it was 0.039 nM; in [11] it was 0.048 nM.

B15: R2-4D2 (antibody, V domains shown)
VH: QVQLVESGGGLVQAGGSLRLSCAASGFSASDVVMAWYRQAPGKQREFVANLGASSTTRYADSVKGRFTISRDDAKNTVSLQMNSLKSEDTAVYYCNALVWNGSSYNNWGQGTQVTVSS
Consider B15, for which the EC50 in [4] was 0.041 nM; in assay [5], 0.202 nM.

B16: 1F4-hv7-NT (antibody, V domains shown)
VH: QVQLVESGGGLVKPGGSLRLSCAASGFSASDVVMAWYRQAPGKQREFVANIAASSTTRYADSVKGRFTISRDNAKNSLYLQMNSLRAEDTAVYYCNALVWTGSSYNNWGQGTQVTVSS
For B16, the values for the dissociation constant Kd with human PD-L1 ECD [8] and with cynomolgus PD-L1 were 6.39 nM and 3.87 nM, respectively. Moreover, the concentration giving a half-maximal response (EC50) in assay [9] worked out at 0.13 nM; in assay [10] it was 0.056 nM; in assay [11] it was 0.047 nM.

B17: 4E2-hv2-NT (antibody, V domains shown)
VH: EVQLVESGGGLVKPGGSLRLSCAASGFSAGDVVMAWYRQAPGKQREFVSNIAASSTTRYADSVKGRFTISRDNAKNSLYLQMNSLRAEDTAVYYCNALVWTGSSYNNWGQGTQVTVSS
Consider B17, for which the values for the Kd in the assay with human PD-L1 ECD [8] and in the assay with cynomolgus PD-L1 were 4.75 nM and 3.24 nM, respectively. The EC50 in assay [9] is 0.11 nM; in [10], 0.054 nM; in assay [11], 0.047 nM.
